Measurements: US20250108100A1, “C-TERMINAL FRAGMENT OF APOLIPOPROTEIN E AND APPLICATION THEREOF IN INHIBITING y-SECRETASE ACTIVITY” (SYNPHATEC (SHANGHAI) BIOPHARMACEUTICAL TECHNOLOGY CO., LTD., priority 2022, published 2025)
“Also recorded” adds a separate entry of the source.

Test system: ADAM10, BACE1, PS1 and PS2
Experiment: mRNA (qRT-PCR) and protein (Western blot) expression of APP secretases in HEK 293T cells
Assay type: cell-based, human
Experimental: • a) A plasmid expressing the target protein in mammalian cells was constructed, and the protein expression promoter is CAG. • b) The target protein was expressed in HEK 293T cell line. Cells were subcultured one day before transfection, and transfection was performed when the degree of cell adhesion reached 70%-80%. The transfection reagent was lipofectamine2000 (ThermoFisher). • c) 4-6 hours post transfection, the medium were replaced with fresh cell culture medium. • d) 36-48 hours post transfection, the cells were lysed (10% 1M tris-HCl (pH=6.8), 4% SDS, 20% glycerol, 0.01% bromophenol blue), and the protein samples were collected and used for Western blot or stored in a −80° C. freezer. • e) Polyacrylamide gel electrophoresis. Before protein loading, the protein was boiled at 98° C. for 10 min, and then centrifuged at 12000 rpm for 10 min. Electrophoresis: 80V for the upper stacking gel; 120V for the lower separating gel. • f) Protein transfer. The filter paper was soaked in the electrophoresis solution before use, and the PVDF membrane was put in methanol for 10s to activate, and the gel after electrophoresis was taken out from the electrophoresis tank, put in the order of filter paper—PVD membrane—gel-filter paper from bottom to top, and they were put into the transfer instrument, with transferring in constant current at 0.1 A for 70 min. • g) Blocking and antibody incubation: the transferred PVDF membrane was placed in 5% BSA/TBST blocking solution, and blocked on a shaker at room temperature for 1 hour. The primary antibody was used to incubate at 4° C. overnight on a shaker (12-16 h); 1×TBST was used to wash three times, once every 10 minutes; the secondary antibody was used to incubate, shaked at room temperature for 1-2 h; 1×TBST was used to wash three times, once every 10 minutes. • h) Imaging by development: development was performed with ECL chemiluminescence hypersensitive chromogenic reagent. […]
Quantitect SYBR-Green qRT-PCR kit from Qiagen was used to quantitatively analyze the relative content of mRNA. qRT-PCR primers were listed in Table 2. […]

B1: ApoE CT: C-terminal fragment of ApoE, positions 216-299 of SEQ ID NO: 12; SEQ ID NO: 33 (protein)
chain: ARMEEMGSRTRDRLDEVKEQVAEVRAKLEEQAQQIRLQAEAFQARLKSWFEPLVEDMQRQWAGLVEKVQAAVGTSAAPVPSDNH
protein expression of APP metabolizing enzymes (Western blot): does not affect the protein expression | mRNA expression of APP metabolizing enzymes (qRT-PCR): does not affect the mRNA expression | mRNA and protein expression of ADAM10, BACE1, PS1 and PS2 (qRT-PCR and Western blot, vs GFP control): does not change the mRNA and protein expression; also recorded: not altered
